# Laboratory results reported in patent US20150183871A1 (AbbVie / Abbott, published 2015).
# T1: recombinant purified human RGM A (human, UniProt Q96B86 48-424, limits assumed)
# T1 construct: Bought recombinant protein (R&D Systems); also called hRGM A; hRGMA
# T1 sequence: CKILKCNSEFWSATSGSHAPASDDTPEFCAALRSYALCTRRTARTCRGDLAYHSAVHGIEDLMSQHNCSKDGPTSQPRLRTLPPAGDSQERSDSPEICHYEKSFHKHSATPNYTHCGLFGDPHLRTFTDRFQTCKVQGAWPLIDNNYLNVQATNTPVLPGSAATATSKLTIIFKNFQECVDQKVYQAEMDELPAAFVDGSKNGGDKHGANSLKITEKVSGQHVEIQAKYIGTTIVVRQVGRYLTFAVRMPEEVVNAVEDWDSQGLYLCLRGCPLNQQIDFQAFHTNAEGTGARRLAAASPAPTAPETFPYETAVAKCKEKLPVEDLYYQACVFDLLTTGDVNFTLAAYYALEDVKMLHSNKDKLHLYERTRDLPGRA
# Tests used:
# [1] = target: T1, recombinant purified human RGM A; assay: direct ELISA, plate coated with hRGM A at 2 µg/ml, biotinylated antibody in 1:5 dilution steps, streptavidin-HRP, OD 450 nm
# Procedure: (i) Direct binding ELISA plates were coated with hRGM A (R&D) at a concentration of 2 μg/ml in Carbonate buffer. The wells were then blocked with 2% Blocking solution (Bio-Rad) for 1 hour at room temperature. Biotinylated antibodies were serially diluted with a 1:5 dilution factor in 0.1% BSNPBS down the plate and incubated for 1 hour at room temperature. The detection reagent was a 1:10,000 dilution of streptavidin-HRP in 0.1% BSNPBS. Detection was done with a TMB reagent, which was stopped with 2N H₂SO₄ and OD was read at 450 nm.
# FAGS was carried out as described in section (ii).
# [2] = target: T1, recombinant purified human RGM A; assay: competition ELISA on coated hRGMA; competitor biotinylated chimeric 5F9
# Procedure: ELISA plates (Costar 3369) were coated overnight at 4° c. with 50 μl/well of 0.25 μg/ml hRGMA in 0.2 M sodium carbonate-bicarbonate buffer, pH 9.4, washed with Wash Buffer (PBS containing 0.1% Tween 20), and blocked for 1 hr at room temperature with 200 μl/well of 2% nonfat dry milk in PBS. After washing with Wash Buffer, a mixture of a biotinylated chimeric 5F9 (0.1 IJg/ml final concentration) and unlabelled competitor test antibody starting at 50 IJg/ml final concentration and serially diluted 5-fold) in 50 μl/well of ELISA buffer was added in duplicate. After incubating the plates for 1 hr at room temperature, and washing with Wash Buffer, bound antibodies were detected using 100 μl/well of 1:10,000 dilution of HRP-conjugated streptavidin (Fitzgerald) in ELISA buffer. After incubating for 1 hr at room temperature, and washing with Wash Buffer, color development was performed by adding 100 μl/well of TMB Buffer (Zymed). After incubating for 15 min at room temperature, color development was stopped by adding 50 μl/well of 1 N hydrochloric acid. Absorbance was read at 490 nm.
# [3] = target: T1, recombinant purified human RGM A; assay: SPR (Biacore 3000), antibody captured by anti-human IgG Fc, hRGMA in solution, 25 °C
# Procedure: The BIACORE assay (Biacore, Inc, Piscataway, N.J.) determines the affinity of antibodies with kinetic measurements of on-, off-rate constants. Binding of antibodies to recombinant purified human RGMA was determined by surface plasmon resonance-based measurements with a Biacore® 3000 instrument (Biacore® AB, Uppsala, Sweden) using running HBS-EP (10 mM HEPES [pH 7.4], 150 mM NaCl, 3 mM EDTA, and 0.005% surfactant P20) at 25° C. All chemicals were obtained from Biacore® AB (Uppsala, Sweden). Approximately 5000 RU of goat anti-human IgG, (Fey), fragment specific polyclonal antibody (Pierce Biotechnology Inc, Rockford, Ill.) diluted in 10 mM sodium acetate (pH 4.5) was directly immobilized across a CM5 research grade biosensor chip using a standard amine coupling kit according to manufacturers instructions and procedures at 25 μg/ml. Unreacted moieties on the biosensor surface were blocked with ethanolamine. Modified carboxymethyl dextran surface in flowcell 2 and 4 was used as a reaction surface. Unmodified carboxymethyl dextran without goat anti-human IgG in flow cell 1 and 3 was used as the reference surface. Purified antibodies were diluted in HEPES-buffered saline for capture across goat anti-humanIgG specific reaction surfaces. Human antibodies to be captured as a ligand (25 μg/ml) were injected over reaction matrices at a flow rate of 5 μl/min. The association and dissociation rate constants, kₒₙ (unit M⁻¹s⁻¹) and koff (unit s⁻¹) were determined under a continuous flow rate of 25 μl/min. Rate constants were derived by making kinetic binding measurements at […] different antigen concentrations ranging from 0.39-50 nM. For kinetic analysis, rate equations derived from the 1:1 Langmuir binding model were fitted simultaneously to association and dissociation phases of all eight injections (using global fit analysis) with the use of Biaevaluation 4.0.1 software. The equilibrium dissociation constant (unit M) of the reaction between humanized antibodies and recombinant purified human RGMA was then calculated from the kinetic rate constants by the following formula: KD=koff/kₒₙ.
Binder,EC50 (read off the curve) [1] [µg/mL],IC50 [2] [µg/mL],Kd [3] [nM],koff [3] [s⁻¹],kon [3] [M⁻¹ s⁻¹]
"rat anti-human RGM A monoclonal antibody 5F9 (antibody, V domains shown, Rat hybridoma antibody; also called ML69-5F9; MAB 5F9) VH: EVQLVESGGGLVQPGSSLKLSCVASGFTFSNYGMNWIRQAPKKGLEWIGMIYYDSSEKHYADSVKGRFTISRDNSKNTLYLEMNSLRSEDTAIYYCAKGTTPDYWGQGVMVTVSS VL: DVVLTQTPVSLSVTLGDQASMSCRSSQSLEYSDGYTFLEWFLQKPGQSPQLLIYEVSNRFSGVPDRFIGSGSGTDFTLKISRVEPEDLGVYYCFQATHDPLTFGSGTKLEIKR",~0.08,–,–,–,–
"humanized antibody h5F9.21 (antibody, V domains shown) VH: EVQLVESGGGVVQPGRSLRLSCAASGFTFSNYGMNWIRQAPGKGLEWIGMIYYDSSEKHYADSVKGRFTISRDNSKNTLYLQMNSLRAEDTAVYYCAKGTTPDYWGQGTMVTVSS VL: DVVLTQSPLSLPVTLGQPASISCRSSQSLEYSDGYTFLEWFLQKPGQSPQLLIYEVSNRFSGVPDRFSGSGSGTDFTLKISRVEAEDVGVYYCFQATHDPLTFGQGTKLEIKR",–,0.6,7.59,0.00269,355000
"humanized antibody h5F9.23 (antibody, V domains shown) VH: EVQLVESGGGLVQPGGSLRLSCAASGFTFSNYGMNWIRQAPGKGLEWIGMIYYDSSEKHYADSVKGRFTISRDNSKNTLYLQMNSLRAEDTAVYYCAKGTTPDYWGQGTMVTVSS VL: DVVLTQSPLSLPVTLGQPASISCRSSQSLEYSDGYTFLEWFQQRPGQSPRLLIYEVSNRFSGVPDRFSGSGSGTDFTLKISRVEAEDVGVYYCFQATHDPLTFGQGTKLEIKR",–,0.55,4.37,0.00221,507000
"humanized antibody h5F9.24 (antibody, V domains shown) VH: EVQLVESGGGLVQPGGSLRLSCAASGFTFSNYGMNWIRQAPGKGLEWIGMIYYDSSEKHYADSVKGRFTISRDNSKNTLYLQMNSLRAEDTAVYYCAKGTTPDYWGQGTMVTVSS VL: DVVLTQSPLSLPVTLGQPASISCRSSQSLEYSDGYTFLEWFQQRPGQSPRRLIYEVSNRFSGVPDRFSGSGSGTDFTLKISRVEAEDVGVYYCFQATHDPLTFGQGTKLEIKR",–,1.32,–,–,–
"humanized antibody h5F9.25 (antibody, V domains shown) VH: EVQLVESGGGLVQPGGSLRLSCAASGFTFSNYGMNWIRQAPGKGLEWIGMIYYDSSEKHYADSVKGRFTISRDNSKNTLYLQMNSLRAEDTAVYYCAKGTTPDYWGQGTMVTVSS VL: DVVLTQSPLSLPVTLGQPASISCRSSQSLEYSDGYTFLEWFLQKPGQSPQLLIYEVSNRFSGVPDRFSGSGSGTDFTLKISRVEAEDVGVYYCFQATHDPLTFGQGTKLEIKR",–,0.66,5.78,0.00329,570000
"chimeric 5F9 (antibody, V domains shown, also called chimeric human-rat 5F9; biotinylated chimeric 5F9) VH: EVQLVESGGGLVQPGSSLKLSCVASGFTFSNYGMNWIRQAPKKGLEWIGMIYYDSSEKHYADSVKGRFTISRDNSKNTLYLEMNSLRSEDTAIYYCAKGTTPDYWGQGVMVTVSS VL: DVVLTQTPVSLSVTLGDQASMSCRSSQSLEYSDGYTFLEWFLQKPGQSPQLLIYEVSNRFSGVPDRFIGSGSGTDFTLKISRVEPEDLGVYYCFQATHDPLTFGSGTKLEIKR",–,–,3.09,0.00236,765000
